Positions count from the first letter of the chain named.

B1: RXFP2 mAb 4F6 (antibody, V domains shown)
VH: EVQLQQSGPELVKPGASVKMSCKASGYTFTNYVLHWVKQKPGQGLEWIGYINPYNDGSKYNEKFKGRATLTSDKSSSTAYMELSSLTSEDSAVYYCARGGWLLDYFDYWGQGTTLTVSS
VL: DVLMTQSPLSLPVSLGEQASISCRSSQSIVHSDGDTYLEWYLQKPGQSPNLLIYKVSNRFSGVPDRFSGSGSGTDFTLKISRVEAEDLGVYYCFQGSHVPPTFGGGTKLEIK
notes: heavy chain variable domain; rat IgG2b heavy chain constant region (rat IgG2b backbone, in-house construct); Recombinant in a rat IgG2b backbone; found as a mouse hybridoma clone; source: Expi293, transfected, purified (Protein G)
B2: RXFP2 mAb 4G6 (antibody, V domains shown)
VH: EVQLQQSGPELVKPGASVKLSCKASGYTFTSYVMHWVKQKPEQGLEWIGYKNPSNDGIKYNEKFKGKATLTSDKSSNIAYMELFSLTSEDSAVYYCARSDFGSVWAMDYWGQGTSVTVSS
VL: SIVMTQTPKFLLVSAGDRVTITCKASQSVNDDIVWYQQKPGQSPKLLIYYASNRYTGVPDRFTGSGYGTDFTFTISTVQAGDLAVYFCQQDYSSPFTFGSGTKLEIK
notes: as for B1
B3: RXFP2 mAb 1F2 (antibody, V domains shown)
VH: QVQLKQSGPGLVQPSQSLSITCTVSGFSLTAYGVNWVRQSPGKGLEWLGVIWSGGNTDYNAPFISRLSITKDNSKSQVFFKMNSLEADDTAIYYCARAKGYYAMDYWGQGTSVTVSS
VL: DIQMTQSPASLSVSVGESVTITCRATENIYSNLVWYQQKQGQSPQLLVYAVTSLADGVPSRFSGSGSGTQYSLKINSLQSEDFGTYYCQHFWGTPYTFGGGTKLEIK
notes: as for B1
B4: RXFP2 mAb 4H5 (antibody, V domains shown)
VH: QVQLKQSGPGLVQPSQSLSITCTVSGFSLTNYGVHWVRQSPGKGLEWLGVIWRDGNTDYNAAFMSRLSITKDNSKSQVFFEMNSLQVDDTAIYYCCRGDGYYAMGYWGQGTSVTVSS
VL: B3 VL with S18T, T26S, V34A, K39R, Q42R, V51A, S53N, T85N, T94S, Y96R
notes: as for B1
B5: RXFP2 mAb 3H1 (antibody, V domains shown)
VH: QVQLKETGPGLVAPSQSLSITCTVSGFSLTNYGVNWVRQPPGKGLEWLVVIWSDGSTNYNSALKSRLSISKDNSKSQVFLKMNSLQTDDTAMYYCARQQGYYAMDYWGQGTSVIVSS
VL: B3 VL with S18T, T26S, V34A, Q42K, S53N, T85S, T94P
notes: as for B1
B6: RXFP2 mAb 3G4 (antibody, V domains shown)
VH: QVQLKESGPGLVAPSQSLSITCTVSGFSLTSYGVSWVRQPPGKGLEWLGVIWGDGSTNYHSALISRLSISKDNSKSQVFLKLNSLQTDDTATYYCAKSLGYYAMDYWGQGTSVTVSS
VL: B3 VL with S18T, T26S, Q42K, V51A, S53N, D56E, T85S, T94P, Y96W
notes: as for B1
B7: RXFP2 mAb 2D4 (antibody, V domains shown)
VH: QVQLKESGPGLVAPSQSLSITCTVSGFSLTTYGISWVRQPPGKGLEWLGVIWTGGGTNYNSALKSRLSISKDNSKSQVFLKMNSLQTDDTARYYCARTEGYYVMDYWGQGTSVTVSS
VL: B3 VL with S18T, T26S, Q42K, V51A, S53N, S77N, T94P, Y96W
notes: as for B1
B8: RXFP2 mAb 4B8 (antibody, V domains shown)
VH: QVQLKQSGPGLVQPSQSLSITCTVSGFSLSRYGVHWVRQSPGKGLEWLGVIWSGGSTEYNAVFKSRLSISKDNSKSQVFFKMNSLQANDTAIYYCVRADGYYAMEYWGQGTSVTVSS
VL: B3 VL with S18T, T26S, V34A, Q42K, S53N, T85N
notes: as for B1
B9: RXFP2 mAb 4H2 (antibody, V domains shown)
VH: QVQLRQSGPSLVQPSQSLSITCTVSGFSLTNYGVHWVRQSPGKGLEWLGVIWRGGNTDHNAAFMSRLSITKDNSESQVFFKMNSLQVDDTAIYYCAKAEGYYALDYWGQGTSVTVYS
VL: B3 VL with S18T, T26S, V34A, Q42K, S53N, T85S, Y96W
notes: as for B1
B10: RXFP2 mAb 3F1 (antibody, V domains shown)
VH: QVQLKESGPGLVAPSQSLSITCTVSGFSLTDYGVSWIRQPPGKGLEWLGVIWGGGSTDYNPALKSRLSISKDNSKSQVFLKMNSLQADDTAMYYCVKHEGYYAMDYWGQGTSVTVSS
VL: B3 VL with S18T, T26S, V34A, Q42K, Q45H, S53N, T85S
notes: as for B1
B11: RXFP2 mAb 4A5 (antibody, V domains shown)
VH: DVQLVESGGGLVQPGGSRKLSCAASGFTFSTFGMHWVRQAPEKGLEWVAYISSGSSTIYYADTVKGRFTISRDNPKNTLFLQMTSLRSDDTAMYYCSRSYYGSAHYFDYWGQGTTLTVSS
VL: DIQMTQSPASLSVSVGETVTITCRASENIYSNLAWYQQKQGKSPQLLVYVATNLADGVPSRFSGSGSGTQYSLRINNLQSEDFGNYYCQHFWGTPPTFGGGTKLEIK
notes: as for B1
B12: RXFP2 mAb 4H1 (antibody, V domains shown)
VH: QIQLVQSGPELKKPGETVKISCKTSGYTFTKYPMHWVKQAPGEGLKWMGWINTYSGLPTFADDFKGRFAFSLETSANTADLQINNLKNEDMATYFCAREGKKLSGYFDYWGQGTTLTVSS
VL: DIKMTQSPSSMYASLGERVTITCKASQDINSYLTWFQQKPGQSPKTLIYRANRFVDGVPSRFSGSGSGQDYSLTITSLEYEDMGIYYCLQYDEFPYTFGGGTQLEIK
notes: as for B1
B13: RXFP2 mAb 1G1 (antibody, V domains shown)
VH: EVQLQQSGPELVKPGASVKMSCKASGYTFTDYNMHWVKQKPGQGLEWIGYINPYNDGTEYNEKFKGKATLTSDKSSSTAYMDLSSLTSEDSAVYYCARGLWFAMNYWGQGTSVTVSS
VL: DIQMTQSSSSFSVSLGDRVTITCKASEDIYNRLAWYQQKPGNTPRLLISGATILETGVPSRFSGSGSGKDYTLSIISLQTEDVATYYCQQYWIIPPTFGGGTKLEIK
notes: as for B1
B14: RXFP2 mAb 3F3 (antibody, V domains shown)
VH: QVQLQQPGSVLVRPGASVKLSCKASGYIFTSYWMHWVKQRPGQGLEWIGEIYPNSGRTSYNEKFKGKATVTVDTSSSTAYVDLSSLTSEDSAVYYCASGGHWFAYWGQGTLVTVSA
VL: B13 VL with T43A, I53S, T56A, I76T, A84S, I94T, P96Y
notes: as for B1
B15: RXFP2 mAb 4B1 (antibody, V domains shown)
VH: QVQLQQSGAELVRPGSSVRISCKASGYAFSNSWINWVKQRPGQGLEWMGQIYPGDGNTNYNGRFKDKATLTADKSSSTAYMQLSSLTSEDSAVYFCARDHNYWGQGTTLTVSS
VL: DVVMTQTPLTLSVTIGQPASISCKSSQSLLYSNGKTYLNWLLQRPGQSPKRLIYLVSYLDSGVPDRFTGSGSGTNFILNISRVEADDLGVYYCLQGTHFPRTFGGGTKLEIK
notes: as for B1
B16: RXFP2 mAb 4G7 (antibody, V domains shown)
VH: EVKLVESGGGLVQPGASLRLSCATSGFTFTDYYMSWVRQPPGKALEWLGFIRNKATGYTTEYSASVKGRFTISRDNSQSILYLQMNTLRAEDSATYYCARDLYYGDWYFDVWGAGTTVTVSS
VL: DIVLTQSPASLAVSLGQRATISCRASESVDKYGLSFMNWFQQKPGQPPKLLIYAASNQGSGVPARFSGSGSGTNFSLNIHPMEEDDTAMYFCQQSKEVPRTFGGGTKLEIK
notes: as for B1
B17: RXFP2 mAb 2H3 (antibody, V domains shown)
VH: QVTLKESGPGILQPSQTLSLTCSFSGFSLSTSGMSVGWIRQPSGKGLEWLAHIWWNDDKYYNPALKSRLTISKDTSNNQVFLKIASVVTADTATYYCARIGYYDGSPHAMDYWGQGTSVTVSS
VL: not shown
notes: as for B1

In the first experiment the target is T1, rat LDLa-linker protein (ratRXFP2-LDLa-linker(20-88)) (Rattus norvegicus, UniProt Q5ECL0).
T1 construct: relaxin family peptide receptor 2 (RXFP2), rat, LDLa module and linker, residues 20-88; Expressed as LDLa-linker, enterokinase site, rat Fc, 8xHis; The Biacore methods say only 'LDLa-linker protein'; also called rat LDLa-linker domain; source: Expi293, transfected, purified (Histrap excel, SEC); enterokinase digestion, Hispur Ni resin, Superdex 200; not shown: rat Fc, C-terminal, cleaved; 8xHis, …
T1 sequence (Q5ECL0 entry or part of it): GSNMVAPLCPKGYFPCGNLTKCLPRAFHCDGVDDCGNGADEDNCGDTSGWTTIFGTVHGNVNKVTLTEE
As to the kind of experiment: SPR; Biacore S200; goat anti-rat Fc gamma immobilised on a Series S CM5 chip, purified recombinant rat anti-RXFP2 antibodies captured at 5 µg/mL; rat or human LDLa-linker protein flowed as analyte at 20, 10, 5, 2.5, 1.75 and 0 nM; 1:1 fit model. To be noted: both partners purified. In general terms: SPR reads the build-up and loss of mass on a sensor chip optically.
Take B1: the Kd (in general, the concentration at which binding is half-saturated) turned out to be 1.7 nM.

Regarding B2, the dissociation constant (Kd) came out at 0.21 nM.

Turning to B3, the equilibrium dissociation constant (Kd) was 0.69 nM.

Consider B4, for which the dissociation constant (Kd) stood at 0.35 nM.

In the case of B5, the Kd was found to be 1.89 nM.

On to B6, for which the Kd was found to be 2.07 nM.

Regarding B7, the equilibrium dissociation constant (Kd) worked out at 0.52 nM.

B8: the Kd came out at 0.55 nM.

B9: the equilibrium dissociation constant (Kd) is 0.32 nM.

Regarding B10, the Kd worked out at 1.24 nM.

For B11, the Kd is 4.23 nM.

With B12, the Kd amounted to 1.01 nM.

In the case of B13, the equilibrium dissociation constant (Kd) came to 0.18 nM.

For B14, the dissociation constant (Kd) worked out at 11.4 nM.

On to B15, for which the Kd amounted to 1.97 nM.

A further experiment deals with T2, human LDLa-linker protein (huRXFP2-LDLa-linker(38-105)) (Homo sapiens, UniProt Q8WXD0).
T2 construct: relaxin family peptide receptor 2 (RXFP2), human, LDLa module and linker, residues 38-105; Expressed as LDLa-linker, enterokinase site, rat Fc, 8xHis; The Biacore methods say only 'LDLa-linker protein'; also called human LDLa-linker domain; source: Expi293, transfected, purified (Histrap excel, SEC); enterokinase digestion, Hispur Ni resin, Superdex 200; not shown: rat Fc, C-terminal, cleaved; …
T2 sequence (Q8WXD0 38-105): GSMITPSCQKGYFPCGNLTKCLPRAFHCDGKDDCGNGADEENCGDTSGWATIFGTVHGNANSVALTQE
Described as above. To be noted: both partners purified.
Take B1: the dissociation constant Kd was 11.7 nM.

Consider B2, for which the Kd was determined as 2.91 nM.

With B16, the binding result was “no binding (tested: 20 nM (highest analyte concentration))”.

For B17, the binding result is given as “no binding (tested: 20 nM (highest analyte concentration))”.

On to B3, for which the binding result was “no binding (tested: 20 nM (highest analyte concentration))”.

In the case of B4, the binding result is “no binding (tested: 20 nM (highest analyte concentration))”.

In the case of B5, the binding result is “no binding (tested: 20 nM (highest analyte concentration))”.

B6: the binding result is “no binding (tested: 20 nM (highest analyte concentration))”.

For the molecule B7, the binding result is on record as “no binding (tested: 20 nM (highest analyte concentration))”.

For the molecule B8, the binding result is “no binding (tested: 20 nM (highest analyte concentration))”.

Consider B9, for which the binding result was “no binding (tested: 20 nM (highest analyte concentration))”.

In the case of B10, the binding result is recorded as “no binding (tested: 20 nM (highest analyte concentration))”.

Consider B11, for which the binding result is recorded as “no binding (tested: 20 nM (highest analyte concentration))”.

On to B12, for which the binding result is on record as “no binding (tested: 20 nM (highest analyte concentration))”.

As to B13, the binding result is “no binding (tested: 20 nM (highest analyte concentration))”.

As to B14, the binding result is given as “no binding (tested: 20 nM (highest analyte concentration))”.

B15: the equilibrium dissociation constant (Kd) was determined as 2.75 nM.

The target of the next experiment is T3, linker-less human LDLa peptide (Q8WXD0 43-80) (Homo sapiens, UniProt Q8WXD0, not fully specified).
T3 construct: relaxin family peptide receptor 2 (RXFP2), human, LDLa module without the linker, residues 43-80; also called LDLa linker-less domain
T3 chain: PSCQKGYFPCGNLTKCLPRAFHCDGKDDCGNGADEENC
The experiment in a line: ELISA; human LDLa peptide (Q8WXD0 43-80) immobilised at 1 µg/mL in PBS on Maxisorp plates overnight at 4 °C; purified antibodies from 5 µg/mL, diluted 1:2 for 8 points, 1 h at room temperature; HRP secondary antibody, TMB. To be noted: both partners purified. Background: In an ELISA, binding on a coated surface is turned into a signal by an enzyme label.
For the molecule B1, the binding result is recorded as “binds”.

Regarding B2, the binding result is listed as “binds”.

Consider B15, for which the binding result is recorded as “no binding (tested: 5 µg/mL (highest antibody concentration))”.
